# Entries after “also recorded” stand apart in the source; their conditions may differ.
# How the values were obtained:
# [1] = system: PDGF-R β expressed on the cell membrane; experiment: Flow cytometry binding to CHO PDGF-R β transfectant cells; parameters: species or system human; conditions: 0.1-1 μg/ml antibody; CHO PDGF-R β transfectants vs untransfected CHO
# Protocol: The cells were washed once in cold PBS and resuspended in 50 μl of PBS containing 10 μg/ml FITC-conjugated goat anti-mouse IgG and incubated for 30 min. After another wash, the cells were fixed by resuspension in 0.25 ml of paraformaldehyde in PBS, and analyzed for fluorescence by flow cytometry on a FACScan (Becton Dickinson).
# PDGF-R β [2] = experiment: Competitive binding with 125I-PDGF BB on transfectant cells expressing PDGF-R β; parameters: species or system human; conditions: 4° C.
# Protocol: To determine the ability of muM4TS.11 and muM4TS.22 to block binding of PDGF BB to PDGF-R β, the following competitive binding experiments were performed. Transfectant cells expressing PDGF-R β were harvested, washed twice with cold DMEM, and resuspended at 10^6 cells/ml in DMEM. The assay was carried out in triplicate by incubating 100 μl of the cell suspension with either: 1) no antibody (to determine total binding); 2) varying concentrations of antibody; or 3) 100 ng cold PDGF BB (to saturate specific binding sites and determine non-specific binding) for 15 minutes at 4° C. Each sample received 1.0 ng ^125 I-labeled PDGF BB, and was incubated for an additional 60 min at 4° C. Unbound ^125 I-labeled PDGF BB was separated from that bound to the cell by layering the sample over a mixture of 80% dibutylphthalate, 20% olive oil in a microfuge tube, and microfuging briefly to pellet the cells through the oil mixture. The tubes were placed in dry ice to freeze the contents, the tip of the tube containing the cell pellet was cut off into a vial, and radioactivity was determined in a gamma counter.
# To assess the ability of HuM4TS.22 to block the binding of PDGF BB to its receptor, competitive binding experiments of HuM4TS.22 with ^125 I-PDGF BB were performed according to the method described in Example 3.
# To assess the ability of muM4TS.11 and HuM4TS.11 to block the binding of PDGF BB to the PDGF β receptor, competitive binding experiments of these antibodies with ^125 I-PDGF BB were performed according to the method described in Example 3.
# PDGF-R β [3] = experiment: Competition with 125I-labeled murine antibody tracer on Sp2/0 PDGF-R β transfectant cells; type: binding, human; conditions: Sp2/0 PDGF-R β transfectants; for binding affinity Ka: calculated from competitive binding data
# Protocol: (§1) To assess the ability of HuM4TS.22 to compete with muM4TS.22 for receptor binding, increasing concentrations of the two antibodies were respectively incubated on ice for one hour with Sp2/0 PDGF-R β transfectant cells and a fixed amount of tracer ^125 I-labeled muAb. The sample tubes were processed as in the blocking experiment just described.
# To assess the ability of HuM4TS.11 to compete with the muAb for receptor binding, increasing concentrations of the two antibodies were respectively incubated on ice for one hour with Sp2/0 PDGF-R β transfectant cells and a fixed amount of tracer ^125 I-labeled M4TS.11. The sample tubes were processed as in the blocking experiment described. […] The binding affinities calculated from the data were: Ka =5×10^8 M^-1 for the muAb and 3×10^7 M^-1 for the HuAb.
# [4] = system: CHO transfectant cell line expressing PDGF-R β (CHO C4); experiment: Inhibition of PDGF BB-induced proliferation (3H-thymidine) of CHO C4 cells; type: cell-based, Chinese hamster
# Protocol: To determine the ability of muM4TS.11 and muM4TS.22 to block PDGF-mediated proliferation, a CHO transfectant cell line expressing PDGF-R β (CHO C4) was generated, as described above. Proliferation of this line, as measured by incorporation of ^3 H-thymidine by DNA synthesis, is stimulated several-fold by PDGF BB. The CHO PDGF-R β transfectants were plated in a 96-well tissue culture plate at about 50,000 cells/well in Ham's F-12+10% FCS and incubated for 1-2 days. The medium was removed, and the cells were washed once with serum-free medium (Ham's F-12+1 mg/ml BSA) and incubated in this media for 1-2 days to put them in a quiescent state. The appropriate amount of antibody in serum-free medium was added, and after 1-3 hours, 50 ng/ml PDGF BB was added. After overnight incubation, 1 μCi ^3 H-thymidine was added, and after a final 4 hour incubation, the cells were harvested using a PHD cell harvester (Cambridge Technology) and analyzed with a scintillation counter.
# [5] = system: human primary fibroblast cell line AG1523B; experiment: Inhibition of PDGF BB-stimulated proliferation of AG1523B fibroblasts; type: cell-based; conditions: 300 ng/ml PDGF BB
# [6] = system: PDGF-R β deletion fusion proteins; experiment: ELISA epitope mapping with PDGF-R β deletion fusion proteins; type: binding, human
# Source text: To localize the binding sites of the M4TS antibodies on the PDGF-R, a series of PDGF-R β deletion mutants, each consisting of one or more adjacent domains of the extracellular portion of the receptor, was constructed by standard methods including PCR. The deletion constructs were each cloned into an expression plasmid (FIG. 13A) where they were fused to the constant region of the human lambda-1 immunoglobulin light chain, to facilitate detection in ELISA. The constructs were as follows (see FIG. 13B):
# These PDGF-R β deletion fusion proteins were transiently expressed, by transfecting 10 μg of the respective expression plasmids into approximately 10^7 S194 mouse myeloma cells (ATCC TIB 19) using the DEAE-dextran method in accordance with the method described by Queen et al. (1984) Mol. Cell. Biol. 4:1042. After the transfected cells had died (4-5 days) and been removed by centrifugation, the culture supernatants containing the PDGF-R β deletion proteins were used in ELISA assays, 100 μl/well. First, the relative levels of the various PDGF-R β deletion proteins were measured in an ELISA where the plate was coated with goat anti-human lambda antibody (Tago) and the proteins detected with HRP-conjugated goat anti-human lambda antibody. […] To determine the ability of the antibodies to bind to each deletion protein, an ELISA was performed in which goat anti-human lambda antibody was used to coat the plate, followed by the cell supernatant and then 0.1 μg of the appropriate antibody, and then bound antibody detected with HRP-conjugated goat-anti-mouse Ig or goat-anti-human Ig antibody as appropriate (Tago). As a positive control, purified soluble PDGF-R β (Example 1) was coated directly on certain wells of the plate (denoted D1-5 in FIG. 14).
# [7] = biological target: T1, PDGF-R β expressed on transfectant cells (CHO PDGF-R β transfectants, CHO C4 line); Sp2/0 PDGF-R β … (human, UniProt P09619); experiment: competition with 125I-labeled muM4TS.22 on Sp2/0 PDGF-R β transfectant cells
# Protocol: Figure 5: FIG. 5 is a graph depicting competitive binding of muM4TS.22 (closed circles) and HuM4TS.22 (open circles). Increasing concentrations of cold competitor antibodies were incubated with the Sp2/0 transfectants expressing PDGF-R β in the presence of radiolabeled tracer muM4TS.22, and the ratio of bound/free radioactivity determined. The results shown are mean values of triplicate samples.
# as §1, with “^125I-labeled” for “^125 I-labeled”, “described. MuM4TS.22 and HuM4TS.22 competed with equal efficiencies (FIG. 5).” for “described.”
# [8] = biological target: T1, PDGF-R β expressed on transfectant …; experiment: competition with 125I-labeled M4TS.11 on Sp2/0 PDGF-R β transfectant cells
# Protocol: Figure 11: FIG. 11 is a graph depicting competitive binding of muM4TS.11 (closed squares) and HuM4TS.11 (open squares) and HuM4TS.11(gamma 1) (open diamonds). Increasing concentrations of cold competitor antibodies were incubated with the Sp2/0 transfectants expressing PDGF-R β in the presence of radiolabeled tracer muM4TS.11, and the ratio of bound/free radioactivity determined. The results shown are mean values of triplicate samples.
# To assess the ability of HuM4TS.11 to compete with the muAb for receptor binding, increasing concentrations of the two antibodies were respectively incubated on ice for one hour with Sp2/0 PDGF-R β transfectant cells and a fixed amount of tracer ^125I-labeled M4TS.11. The sample tubes were processed as in the blocking experiment described. HuM4TS.11 competed less well than muM4TS.11 (FIG. 11).
Molecule,"competition with labeled murine antibody for receptor binding / binding affinity, in words (PDGF-R β [3])",binding affinity Ka (PDGF-R β [3]) [M⁻¹],Ka [7] [M⁻¹],inhibition of PDGF-mediated proliferation compared with another antibody [4],also measured
"muM4TS.22: murine monoclonal antibody to PDGF-R β, variable regions SEQ ID NOS:2 and 4; epitope in third extracellular domain (antibody, V domains shown) VL: MRVLAELLGLLLFCFLGVRCDIQMNQSPSSLSASLGDTITITCHASQNINVWLSWYQRKPGNIPKLLIYKASNLHTGVPSRFSGSGSGTGFTLTISSLQPEDIATYYCQQGQSFPFTFGSGTKLEIK VH: MAVLALLLCLVTFPSCALSQVQLKESGPGLVAPSQSLSITCTVSGFSLTNYAINWVRQPPGQGLEWLGIIWTGGGTSYNSALKSRLSISKDNSKSQVFLKMNSLQTDDTARYYCARTGTRGYFFDYWGQGTTLTVSS",competed with equal efficiencies,2.6e+08,,,"specific binding to membrane PDGF-R β by flow cytometry [1]: specifically bound to CHO PDGF-R β transfectant cells but not to untransfected CHO cells; blocking of 125I-PDGF BB binding to PDGF-R β (PDGF-R β [2]): competitively blocked binding of PDGF BB to PDGF-R β; also recorded: did have the ability to block binding of PDGF BB to PDGF-R β; inhibition of PDGF BB-induced proliferation ([4]; 50 ng/ml PDGF BB, sufficient antibody concentration): completely inhibited proliferation of the cells induced by PDGF BB; also recorded: almost completely inhibited the stimulation of proliferation by PDGF BB; inhibition of stimulation of proliferation by PDGF BB [5]: effectively inhibited the stimulation of proliferation by PDGF BB; binding to deletion proteins containing only first through second domains ([6]; 0.1 μg antibody): do not bind; binding to protein D1-3 ([6]; 0.1 μg antibody): do bind to protein D1-3; binding to protein D3 (third domain only) ([6]; 0.1 μg antibody): bind to the protein D3; binding to protein D5 (fifth domain only) ([6]; separate experiment): none of muM4TS.11 and HuM4TS.11, muM4TS.22 and HuM4TS.22 bound to it"
"muM4TS.22 (antibody, V domains shown) VH: QVQLKESGPGLVAPSQSLSITCTVSGFSLTNYAINWVRQPPGQGLEWLGIIWTGGGTSYNSALKSRLSISKDNSKSQVFLKMNSLQTDDTARYYCARTGTRGYFFDYWGQGTTLTVSS VL: DIQMNQSPSSLSASLGDTITITCHASQNINVWLSWYQRKPGNIPKLLIYKASNLHTGVPSRFSGSGSGTGFTLTISSLQPEDIATYYCQQGQSFPFTFGSGTKLEIK",,,2.6e+08,,
"HuM4TS.22 (antibody, V domains shown) VH: QVQLQESGPGLVKPSETLSLTCTVSGFSLTNYAINWVRQPPGKGLEWLGIIWTGGGTSYNSALKSRLTISKDTSKNQVSLKLSSVTAADTAVYYCARTGTRGYFFDYWGQGTLVTVSS VL: DIQMTQSPSSLSASVGDRVTITCHASQNINVWLSWYQQKPGKAPKLLIYKASNLHTGVPSRFSGSGSGTGFTLTISSLQPEDIATYYCQQGQSFPFTFGGGTKVEIK",,,4e+08,,
"HuM4TS.11 (antibody, V domains shown) VH: QVQLVQSGAEVKKPGASVKVSCKASGYTFTNCWMHWVRQAPGQGLEWIGYINPTTGYSEYNQNFKDKATITADKSTSTAYMELSSLRSEDTAVYYCTSNYGHYDWFGNWGQGTLVT VL: DIQMTQSPSSLSASVGDRVTITCRASESVDSYGNSFMHWYQQKPGKAPKLLIYRASNLESGIPSRFSGSGSRTDFTLTISSLQPEDVATYYCQQSNEDPPTFGQGTKVEIK",,,,,Ka [8]: 3e+07 M⁻¹
"HuM4TS.11(gamma1): same variable domains as HuM4TS.11 but a gamma1 rather than gamma4 heavy chain constant region (antibody, V domains shown) VL: DIQMTQSPSSLSASVGDRVTITCRASESVDSYGNSFMHWYQQKPGKAPKLLIYRASNLESGIPSRFSGSGSRTDFTLTISSLQPEDVATYYCQQSNEDPPTFGQGTKVEIK VH: QVQLVQSGAEVKKPGASVKVSCKASGYTFTNCWMHWVRQAPGQGLEWIGYINPTTGYSEYNQNFKDKATITADKSTSTAYMELSSLRSEDTAVYYCTSNYGHYDWFGNWGQGTLVT",higher binding affinity than HuM4TS.11,1.6e+08,,about equally well,
"HuM4TS.11.2: HuM4TS.11 version in which a few additional human framework residues were changed to their murine counterparts (antibody, V domains shown) VL: DIVLTQSPSSLSASVGDRVTITCRASESVDSYGNSFMHWYQQKPGKAPKLLIYRASNLESGIPSRFSGGGSRTDFTLTISSLQPEDVATYYCQQSNEDPPTFGQGTKVEIK VH: QVQLVQSGAEVKKPGASVKVSCKASGYTFTNCWMHWVKQRPGQGLEWIGYINPTTGYSEYNQNFKDKATLTADKSTSTAYIELSSLRSEDTAVYYCTSNYGHYDWFGNWGQGTLVT",the same binding characteristics for PDGF-R β,,,the same level of inhibition of PDGF-stimulated cell proliferation as does HuM4TS.11,
